Experimental data taken from the supplement of paper PMC10567573.

Assay: protein stability index of a GFP-peptide fusion (GPS, HEK-293T) (PSI 1-6); higher = more stable
Conditions: c terminus: native
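Further: lentivirally expressed fusion library, cells FACS-sorted into six equal-sized GFP/DsRed ratio bins, PSI computed from sequencing read fractions per bin weighted by bin number.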

HSLRAVSTDPPHHDHHDEFCLMPR [BEX2 addR]
protein stability index (parent: NP_116010.1): 4.61

EQRNSRWNTVLRAVKAKTHHLEPR [TRPA1 addR]
protein stability index (parent: NP_015628.1): 4.5

LPALFTDLYSQEITAEEAREALPR [SNF8 addR]
protein stability index (parent: NP_009172.2): 3.55

CQPISFSGFGAEDDDLGGLGLGPR [POLD2 addR]
protein stability index (parent: NP_006221.1): 4.36
